Here are results for two molecules from patent US20260284139 (published 2026).

What is called Kd is the equilibrium constant for the complex coming apart. In general, IC50 refers to the point on the concentration scale where inhibition reaches its midpoint.

Where two headings read alike, the source gives them in different places. Where no end group is shown, it is not given here. [ ]: non-standard residue; d: D form. The star is where a group is joined. Octanoyl = CCCCCCCC(=O)*

In assay [1] the target is T1, β-catenin (full-length recombinant) (human, UniProt P35222).
T1 chain: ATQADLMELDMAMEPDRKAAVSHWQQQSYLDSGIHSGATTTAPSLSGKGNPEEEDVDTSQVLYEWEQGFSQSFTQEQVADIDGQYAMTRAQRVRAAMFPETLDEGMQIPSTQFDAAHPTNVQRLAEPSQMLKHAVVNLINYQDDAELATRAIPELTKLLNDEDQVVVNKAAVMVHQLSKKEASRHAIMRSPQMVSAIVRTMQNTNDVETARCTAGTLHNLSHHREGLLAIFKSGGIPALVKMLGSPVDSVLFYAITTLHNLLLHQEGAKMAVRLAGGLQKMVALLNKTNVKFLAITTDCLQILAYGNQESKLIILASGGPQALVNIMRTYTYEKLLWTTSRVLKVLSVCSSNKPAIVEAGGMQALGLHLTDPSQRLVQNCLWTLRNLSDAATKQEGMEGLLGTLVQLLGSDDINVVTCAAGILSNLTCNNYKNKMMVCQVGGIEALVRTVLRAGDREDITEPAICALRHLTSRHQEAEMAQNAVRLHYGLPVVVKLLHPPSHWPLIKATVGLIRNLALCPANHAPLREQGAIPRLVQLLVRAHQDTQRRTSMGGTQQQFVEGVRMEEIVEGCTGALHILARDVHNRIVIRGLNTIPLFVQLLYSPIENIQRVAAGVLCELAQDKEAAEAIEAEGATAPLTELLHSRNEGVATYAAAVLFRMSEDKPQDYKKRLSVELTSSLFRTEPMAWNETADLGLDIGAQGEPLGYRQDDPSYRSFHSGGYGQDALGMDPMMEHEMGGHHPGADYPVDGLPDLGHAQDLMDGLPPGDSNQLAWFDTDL
Description: FP, room temperature.

Assay [2] has as its target T1, β-catenin (full-length recombinant). Description: competition, ALPHA assay vs BCL9 HD2 peptide, pH 6.5.
Assay [3] has the same target.

B1: ST316 (peptide)
chain: Octanoyl-[dF][dR][dW][dL][dL][dR][dQ][dL][dA][dR][dL][dA][dQ][dL][dA][dK][dL][dT][dP][dV][dK][dL][dT][dP][dV]
modifications: also: FITC conjugate used in the FP assay
Take B1: in assay [1], the Kd is about 0.126 µM. In assay [2], the IC50 is about 1 µM.

B2: BCL9 (protein)
chain: MHSSNPKVRSSPSGNTQSSPKSKQEVMVRPPTVMSPSGNPQLDSKFSNQGKQGGSASQSQPSPCDSKSGGHTPKALPGPGGSMGLKNGAGNGAKGKGKRERSISADSFDQRDPGTPNDDSDIKECNSADHIKSQDSQHTPHSMTPSNATAPRSSTPSHGQTTATEPTPAQKTPAKVVYVFSTEMANKAAEAVLKGQVETIVSFHIQNISNNKTERSTAPLNTQISALRNDPKPLPQQPPAPANQDQNSSQNTRLQPTPPIPAPAPKPAAPPRPLDRESPGVENKLIPSVGSPASSTPLPPDGTGPNSTPNNRAVTPVSQGSNSSSADPKAPPPPPVSSGEPPTLGENPDGLSQEQLEHRERSLQTLRDIQRMLFPDEKEFTGAQSGGPQQNPGVLDGPQKKPEGPIQAMMAQSQSLGKGPGPRTDVGAPFGPQGHRDVPFSPDEMVPPSMNSQSGTIGPDHLDHMTPEQIAWLKLQQEFYEEKRRKQEQVVVQQCSLQDMMVHQHGPRGVVRGPPPPYQMTPSEGWAPGGTEPFSDGINMPHSLPPRGMAPHPNMPGSQMRLPGFAGMINSEMEGPNVPNPASRPGLSGVSWPDDVPKIPDGRNFPPGQGIFSGPGRGERFPNPQGLSEEMFQQQLAEKQLGLPPGMAMEGIRPSMEMNRMIPGSQRHMEPGNNPIFPRIPVEGPLSPSRGDFPKGIPPQMGPGRELEFGMVPSGMKGDVNLNVNMGSNSQMIPQKMREAGAGPEEMLKLRPGGSDMLPAQQKMVPLPFGEHPQQEYGMGPRPFLPMSQGPGSNSGLRNLREPIGPDQRTNSRLSHMPPLPLNPSSNPTSLNTAPPVQRGLGRKPLDISVAGSQVHSPGINPLKSPTMHQVQSPMLGSPSGNLKSPQTPSQLAGMLAGPAAAASIKSPPVLGSAAASPVHLKSPSLPAPSPGWTSSPKPPLQSPGIPPNHKAPLTMASPAMLGNVESGGPPPPTASQPASVNIPGSLPSSTPYTMPPEPTLSQNPLSIMMSRMSKFAMPSSTPLYHDAIKTVASSDDDSPPARSPNLPSMNNMPGMGINTQNPRISGPNPVVPMPTLSPMGMTQPLSHSNQMPSPNAVGPNIPPHGVPMGPGLMSHNPIMGHGSQEPPMVPQGRMGFPQGFPPVQSPPQQVPFPHNGPSGGQGSFPGGMGFPGEGPLGRPSNLPQSSADAALCKPGGPGGPDSFTVLGNSMPSVFTDPDLQEVIRPGATGIPEFDLSRIIPSEKPSQTLQYFPRGEVPGRKQPQGPGPGFSHMQGMMGEQAPRMGLALPGMGGPGPVGTPDIPLGTAPSMPGHNPMRPPAFLQQGMMGPHHRMMSPAQSTMPGQPTLMSNPAAAVGMIPGKDRGPAGLYTHPGPVGSPGMMMSMQGMMGPQQNIMIPPQMRPRGMAADVGMGGFSQGPGNPGNMMF
For B2, in assay [3], the Kd was about 0.2 µM.
